According to FireProtDB (doi:10.1021/bi9901228):

Settings: Homo sapiens; pH 2.7; Thermal; DSC; glycine 0.05 M; reversible: yes; whole UniProt chain shown

B1: Lysozyme C wild type, P61626 (protein)
chain: MKALIVLGLVLLSVTVQGKVFERCELARTLKRLGMDGYRGISLANWMCLAKWESGYNTRATNYNAGDRSTDYGIFQINSRYWCNDGKTPGAVNACHLSCSALLQDNIADAVACAKRVVRDPQGIRAWVAWRNRCQNRDVRQYVQGCGV
Tm: 64.9 °C
heat capacity change of unfolding: 1.58 kcal/mol/K
unfolding enthalpy (calorimetric): 114 kcal/mol
